We go through one substance from paper PMC6127144.

The target of this assay is human plasma membrane Ca2+-ATPase 1, full-length human PMCA1d (human) (UniProt P20020).
Sequence of UniProt P20020 (P20020 other isoform, or with tags, fused parts or gaps): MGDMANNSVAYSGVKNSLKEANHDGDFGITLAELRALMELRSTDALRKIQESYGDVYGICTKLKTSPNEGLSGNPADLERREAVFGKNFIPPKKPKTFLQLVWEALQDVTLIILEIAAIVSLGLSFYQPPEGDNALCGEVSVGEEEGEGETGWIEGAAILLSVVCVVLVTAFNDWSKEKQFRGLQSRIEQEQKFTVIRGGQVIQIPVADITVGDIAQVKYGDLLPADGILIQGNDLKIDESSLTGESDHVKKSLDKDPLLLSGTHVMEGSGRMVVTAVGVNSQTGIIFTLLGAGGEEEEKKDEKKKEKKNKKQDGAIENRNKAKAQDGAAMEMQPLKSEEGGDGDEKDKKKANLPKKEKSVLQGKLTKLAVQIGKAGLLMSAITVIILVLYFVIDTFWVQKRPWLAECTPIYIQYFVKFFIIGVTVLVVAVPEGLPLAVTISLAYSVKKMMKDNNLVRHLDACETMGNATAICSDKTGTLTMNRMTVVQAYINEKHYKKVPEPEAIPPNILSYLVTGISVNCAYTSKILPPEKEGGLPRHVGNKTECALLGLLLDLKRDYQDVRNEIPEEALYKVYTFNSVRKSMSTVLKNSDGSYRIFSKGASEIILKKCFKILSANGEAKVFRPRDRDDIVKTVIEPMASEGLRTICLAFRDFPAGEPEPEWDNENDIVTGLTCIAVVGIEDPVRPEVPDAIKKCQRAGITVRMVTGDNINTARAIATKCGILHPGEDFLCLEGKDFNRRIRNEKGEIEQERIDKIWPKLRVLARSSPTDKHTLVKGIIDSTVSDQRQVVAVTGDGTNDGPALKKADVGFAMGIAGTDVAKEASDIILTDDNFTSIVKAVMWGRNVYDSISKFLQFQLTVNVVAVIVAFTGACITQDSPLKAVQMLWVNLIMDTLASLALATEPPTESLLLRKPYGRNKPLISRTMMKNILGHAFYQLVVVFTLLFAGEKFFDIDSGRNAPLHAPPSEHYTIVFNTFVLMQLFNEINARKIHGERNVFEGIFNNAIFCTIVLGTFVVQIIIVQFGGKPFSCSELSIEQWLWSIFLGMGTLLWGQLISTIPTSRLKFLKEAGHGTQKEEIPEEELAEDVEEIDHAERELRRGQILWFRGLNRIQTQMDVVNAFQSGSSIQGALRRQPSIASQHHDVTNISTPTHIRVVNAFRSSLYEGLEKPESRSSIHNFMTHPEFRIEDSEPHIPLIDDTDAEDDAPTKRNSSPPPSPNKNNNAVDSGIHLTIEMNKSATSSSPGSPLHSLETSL

Take neuroplastin (natural protein): the Vmax of the ATPase activity of purified hPMCA1-NPTN proteins (nmol mg^-1 min^-1) worked out at 326.
